According to US20150353923, “Method for Identifying RNA Segments Bound by RNA-Binding Proteins or Ribonucleoprotein Complexes” (Rockefeller University, published 2015):

Experiments:
Conditions in all cases: tags: N-terminal His6 (pDEST17, E. coli); label: 32P
[1] = molecular target: T1, QKI (Quaking) (UniProt Q96PU8-9 Q96PU8-9:1-319); assay: EMSA; 330 mM KCl, 10 mM MgCl2, pH 7.4, 100 ng tRNA
T1 sequence: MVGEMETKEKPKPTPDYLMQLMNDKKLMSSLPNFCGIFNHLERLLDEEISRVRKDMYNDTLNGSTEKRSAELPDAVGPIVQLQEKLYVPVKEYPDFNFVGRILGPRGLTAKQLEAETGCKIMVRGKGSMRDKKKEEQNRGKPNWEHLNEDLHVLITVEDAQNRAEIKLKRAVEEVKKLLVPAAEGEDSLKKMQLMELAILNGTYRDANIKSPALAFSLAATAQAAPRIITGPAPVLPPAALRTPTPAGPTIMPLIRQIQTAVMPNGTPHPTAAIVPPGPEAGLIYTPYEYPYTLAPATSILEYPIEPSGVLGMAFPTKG
Protocol: (§1) Radiolabeled RNA (1 nM) was incubated with recombinant His6-QKI protein at various concentrations and 100 ng tRNA in 20 μl of 20 mM HEPES-KOH, pH 7.4, 330 mM KCl, 10 mM MgCl2, 0.1 mM EDTA and 0.01% IGEPAL CA630 (Sigma). After addition of 6 μl loading dye (40% glycerol, bromophenol blue in binding buffer), the solution was loaded onto a native 10% acrylamide gel containing 0.5×TBE, running at 200 V for 2 h at room temperature, using 0.5×TBE as running buffer. The protein-bound RNA and the free RNA were quantified using a phosphorimager.

[2] = molecular target: T1, QKI (Quaking); assay: EMSA; 4SU position has no significant effect on affinity; 330 mM KCl, 10 mM MgCl2, tRNA
Protocol: as §1

[3] = molecular target: T1, QKI (Quaking); assay: EMSA; binding unaffected by 4SU; 330 mM KCl, 10 mM MgCl2, tRNA
Protocol: as §1

B1: HOXD13 3'UTR QKI-site oligoribonucleotide (ssRNA)
RNA: GUAUGCCAUUAACAAAUUCAUUAACAA
B1: binds [1].

B2: QKI oligo 4SU at U2 (ssRNA)
RNA: GUAUGCCAUUAACAAAUUCAUUAACAA
modifications: 4-thiouridine at position 2
B2: binds [2].

B3: QKI oligo 4SU at U4 (ssRNA)
RNA: GUAUGCCAUUAACAAAUUCAUUAACAA
modifications: 4-thiouridine at position 4
B3: binds [2].

B4: QKI oligo 4SU at U10 (ssRNA)
RNA: GUAUGCCAUUAACAAAUUCAUUAACAA
modifications: 4-thiouridine at position 10 (position 3 of recognition element)
B4: binds [3].
